Results: patent publication US20050153310A1 (PROMEGA, published 2005)

Target: FKBP (FK506 binding protein) (UniProt P62942 2-108)
Experiment: cell-based or functional assay

FKBP (FK506 binding protein), sequence (P62942 2-108): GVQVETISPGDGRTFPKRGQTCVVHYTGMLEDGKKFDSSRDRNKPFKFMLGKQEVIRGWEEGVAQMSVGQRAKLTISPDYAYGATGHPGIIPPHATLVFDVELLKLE

fold decrease in relative luminescence of the in vitro translated double fusion FRB-luc2-FKBP with 0.2 uM rapamycin, compared to the control reactions: 20 fold
luminescent signal of D293 cells transfected with FRB-Luc2-FKBP under the CMV promoter, with rapamycin: ≤ 2 fold
luminescent signal of D293 cells transfected with FRB-Luc2-FKBP under the TK promoter, with rapamycin: ≤ 5 fold
B1: FRB (rapamycin binding protein) (other)
chain: ILWHEMWHEGLEEASRLYFGERNVKGMFEVLEPLHAMMERGPQTLKETSFNQAYGRDLMEAQEWCRKYMKSGNVKDLTQAWDLYYHVFRRISK
